This experiment in a line: Conversion of 5% or 10% N-acetyl-DL-tryptophan by E. coli transformant cells. The following applies: 25° C. The class given is cell-based, E. coli HB101. The method, then:
Cells of E. coli HB101 strain were transformed with the expression plasmids for the three mutant D-aminoacylases AD-0103, AD-1064, and AD-1927 obtained in Example 8, whose inhibition was impaired. The E. coli cells were inoculated in liquid LB media, and cultured at 30° C. overnight. Then, the transformants were inoculated in 2x YT (2% Bacto tryptone, 1% Bacto-yeast extract, 1.0% sodium chloride, pH 7.2) media and incubated at 30° C. for 18 hours. The E. coli cells were harvested. The bacterial cells were used to hydrolyze N-acetyl-D-tryptophan.
Cells of the respective E. coli transformants prepared from 5 ml of liquid culture media were incubated in 10 ml of reaction solutions which comprised 300 mM Tris-hydrochloride buffer (pH 8.0) containing 5% or 10% N-acetyl-DL-tryptophan at 25° C. while being stirred. An E. coli HB101 strain containing the plasmid pSL-ADD6 with the wild-type D-aminoacylase was used as a control. In assays using 5% N-acetyl-DL-tryptophan as the substrate, the yield was about 50% with the wild type, whereas the yield was about 100% with any one of the four mutants. In assays using 10% N-acetyl-DL-tryptophan as the substrate, the yield was about 15% with the wild type, whereas the yield was about 25% with each of the mutants AD-0103 and AD-1089; the yield was about 40% with the mutant AD-1064, and the yield was about 60% with the mutant AD-1927. […]

B1: wild-type: D-aminoacylase derived from Alcaligenes denitrificans subsp. xylosoxydans MI-4, SEQ ID NO: 1 (protein)
chain: MSQSDSQPFDLLLAGGTLIDGSNTPGRRADLGVRGDRIAAIGDLSDAAAHTRVDVSGLVVAPGFIDSHTHDDNYLLRRRDMTPKISQGVTTVVTGNCGISLAPLAHANPPAPLDLLDEGGSYRFERFADYLDALRATPAAVNAACMVGHSTLRAAVMPDLQRAATDEEIAAMRDLAEEAMASGAIGISTGAFYPPAARATTEEIIEVCRPLSAHGGIYATHMRDEGEHIVAALEETFRIGRELDVPVVISHHKVMGQPNFGRSRETLPLIEAAMARQDVSLDAYPYVAGSTMLKQDRVLLAGRTIITWCKPFPELSGRDLDEVAAERGKSKYDVVPELQPAGAIYFMMDEPDVQRILAFGPTMIGSDGLPHDERPHPRLWGTFPRVLGHYARDLGLFPLETAVWKMTGLTAARFGLAGRGQLQAGYFADLVVFDPATVADTATFEHPTERAAGIHSVYVNGAPVWQEQAFTGQHAGRVLARTAA
modifications: Alcaligenes denitrificans subsp. xylosoxydans MI-4
Take B1: the yield entry is recorded as “about 50%” (5% N-acetyl-DL-tryptophan) and “about 15%” (10% N-acetyl-DL-tryptophan).

Values taken from patent US7282356B2, “D-aminoacylase mutants” (Daicel Chemical Industries, Ltd., priority 2002, dated 2007).
